± gives the standard deviation of the averaged measurements.
Assay: total protein half-life in vivo (active degradation + dilution); higher = more stable protein
[1] = E. coli NCM3722 delta-clpP delta-lon delta-hslV, growth: N-lim chemostat, doubling time 6 h
[2] = E. coli NCM3722 delta-clpP, growth: N-lim chemostat, doubling time 6 h
[3] = E. coli NCM3722 delta-hslV, growth: N-lim chemostat, doubling time 6 h
[4] = E. coli NCM3722 delta-lon, growth: N-lim chemostat, doubling time 6 h
[5] = E. coli NCM3722 delta-smpB, growth: N-lim chemostat, doubling time 6 h
[6] = wild type E. coli NCM3722, growth: C-lim chemostat, doubling time 3 h
[7] = wild type E. coli NCM3722, growth: C-lim chemostat, doubling time 6 h
[8] = wild type E. coli NCM3722, growth: C-lim chemostat, doubling time 12 h
[9] = wild type E. coli NCM3722, growth: N-lim chemostat, doubling time 6 h
[10] = wild type E. coli NCM3722, growth: N-lim chemostat, doubling time 12 h
[11] = wild type E. coli NCM3722, growth: P-lim chemostat, doubling time 6 h
[12] = wild type E. coli NCM3722, growth: P-lim chemostat, doubling time 12 h

Sequence	total protein half-life in vivo [1] [h]	total protein half-life in vivo [2] [h]	total protein half-life in vivo [3] [h]	total protein half-life in vivo [4] [h]	total protein half-life in vivo [5] [h]	total protein half-life in vivo [6] [h]	total protein half-life in vivo [7] [h]	total protein half-life in vivo [8] [h]	total protein half-life in vivo [9] [h]	total protein half-life in vivo [10] [h]	total protein half-life in vivo [11] [h]	total protein half-life in vivo [12] [h]
MIVAFCLYKYFPFGGLQRDFMRIASTVAARGHHVRVYTQSWEGDCPKAFELIQVPVKSHTNHGRNAEYYAWVQNHLKEHPADRVVGFNKMPGLDVYFAADVCYAEKVAQEKGFLYRLTSRYRHYAAFERATFEQGKSTKLMMLTDKQIADFQKHYQTEPERFQILPPGIYPDRKYSEQIPNSREIYRQKNGIKEQQNLLLQVGSDFGRKGVDRSIEALASLPESLRHNTLLFVVGQDKPRKFEALAEKLGVRSNVHFFSGRNDVSELMAAADLLLHPAYQEAAGIVLLEAITAGLPVLTTAVCGYAHYIADANCGTVIAEPFSQEQLNEVLRKALTQSPLRMAWAENARHYADTQDLYSLPEKAADIITGGLDG	6.84 ± 0.81	7.01 ± 1.2	6.71 ± 0.8	5.95 ± 0.33	5.9 ± 0.47	3.115 ± 0.015	6.72 ± 0.35	11.8 ± 2.6	6.2 ± 0.56	12.3 ± 1.8	6.25 ± 0.29	12.2 ± 0.98
MIVFSSLQIRRGVRVLLDNATATINPGQKVGLVGKNGCGKSTLLALLKNEISADGGSYTFPGSWQLAWVNQETPALPQAALEYVIDGDREYRQLEAQLHDANERNDGHAIATIHGKLDAIDAWSIRSRAASLLHGLGFSNEQLERPVSDFSGGWRMRLNLAQALICRSDLLLLDEPTNHLDLDAVIWLEKWLKSYQGTLILISHDRDFLDPIVDKIIHIEQQSMFEYTGNYSSFEVQRATRLAQQQAMYESQQERVAHLQSYIDRFRAKATKAKQAQSRIKMLERMELIAPAHVDNPFRFSFRAPESLPNPLLKMEKVSAGYGDRIILDSIKLNLVPGSRIGLLGRNGAGKSTLIKLLAGELAPVSGEIGLAKGIKLGYFAQHQLEYLRADESPIQHLARLAPQELEQKLRDYLGGFGFQGDKVTEETRRFSGGEKARLVLALIVWQRPNLLLLDEPTNHLDLDMRQALTEALIEFEGALVVVSHDRHLLRSTTDDLYLVHDRKVEPFDGDLEDYQQWLSDVQKQENQTDEAPKENANSAQARKDQKRREAELRAQTQPLRKEIARLEKEMEKLNAQLAQAEEKLGDSELYDQSRKAELTACLQQQASAKSGLEECEMAWLEAQEQLEQMLLEGQSN	6.02 ± 0.54	4.89 ± 0.15	2.697 ± 0.016	3.16 ± 0.084	2.95 ± 0.13	2.39 ± 0.12	4.3 ± 0.48	6.5 ± 0.051	2.95 ± 0.15	3.94 ± 0.5	3.58 ± 0.25	6.36 ± 0.25
MIVLVTGATAGFGECITRRFIQQGHKVIATGRRQERLQELKDELGDNLYIAQLDVRNRAAIEEMLASLPAEWCNIDILVNNAGLALGMEPAHKASVEDWETMIDTNNKGLVYMTRAVLPGMVERNHGHIINIGSTAGSWPYAGGNVYGATKAFVRQFSLNLRTDLHGTAVRVTDIEPGLVGGTEFSNVRFKGDDGKAEKTYQNTVALTPEDVSEAVWWVSTLPAHVNINTLEMMPVTQSYAGLNVHRQ	5.86 ± 0.16		6.26 ± 1.3	6.57 ± 1.4	4.72 ± 0.53			10.8 ± 0.87	4.82 ± 0.56	8.94 ± 0.42	6.44 ± 0.14	11.6 ± 1.9
MIVTIVGWLVLFVFLPNLMIIGTSFLTRDDASFVKMVFTLDNYTRLLDPLYFEVLLHSLNMALIATLACLVLGYPFAWFLAKLPHKVRPLLLFLLIVPFWTNSLIRIYGLKIFLSTKGYLNEFLLWLGVIDTPIRIMFTPSAVIIGLVYILLPFMVMPLYSSIEKLDKPLLEAARDLGASKLQTFIRIIIPLTMPGIIAGCLLVMLPAMGLFYVSDLMGGAKNLLIGNVIKVQFLNIRDWPFGAATSITLTIVMGLMLLVYWRASRLLNKKVELE [P0AFK4]	4.04 ± 3				5.57 ± 0.42		5.93	9.29 ± 5.5	5.03		2.09	6.6
MIYIGLPQWSHPKWVRLGITSLEEYARHFNCVEGNTTLYALPKPEVVLRWREQTTDDFRFCFKFPATISHQAALRHCDDLVTEFLTRMSPLAPRIGQYWLQLPATFGPRELPALWHFLDSLPGEFNYGVEVRHPQFFAKGEEEQTLNRGLHQRGVNRVILDSRPVHAARPHSEAIRDAQRKKPKVPVHAVLTATNPLIRFIGSDDMTQNRELFQVWLQKLAQWHQTTTPYLFLHTPDIAQAPELVHTLWEDLRKTLPEIGAVPAIPQQSSLF	4.97 ± 2.1	3.55 ± 0.26	2.76 ± 0.11	3.25 ± 0.55	2.97 ± 0.13		4.28	8.14 ± 0.79	3.16 ± 0.033	5.52	5.33 ± 0.11	11.5 ± 0.46
MIYPDEAMLYAPVEWHDCSEGFEDIRYEKSTDGIAKITINRPQVRNAFRPLTVKEMIQALADARYDDNIGVIILTGAGDKAFCSGGDQKVRGDYGGYKDDSGVHHLNVLDFQRQIRTCPKPVVAMVAGYSIGGGHVLHMMCDLTIAADNAIFGQTGPKVGSFDGGWGASYMARIVGQKKAREIWFLCRQYDAKQALDMGLVNTVVPLADLEKETVRWCREMLQNSPMALRCLKAALNADCDGQAGLQELAGNATMLFYMTEEGQEGRNAFNQKRQPDFSKFKRNP [P0ABU0]	4.73 ± 0.74	4.048 ± 0.036	4.15 ± 0.17	4.48 ± 0.44	3.8 ± 0.061	2.9 ± 0.51	5.55 ± 0.53	9.64 ± 0.8	3.88 ± 0.12	6.07 ± 0.33	5.58 ± 0.069	10.85 ± 0.06
MKAARQQAIVDLLLNHTSLTTEALSEQLKVSKETIRRDLNELQTQGKILRNHGRAKYIHRQNQDSGDPFHIRLKSHYAHKADIAREALAWIEEGMVIALDASSTCWYLARQLPDINIQVFTNSHPICHELGKRERIQLISSGGTLERKYGCYVNPSLISQLKSLEIDLFIFSCEGIDSSGALWDSNAINADYKSMLLKRAAQSLLLIDKSKFNRSGEARIGHLDEVTHIISDERQVATSLVTA [P0ACK8]	4.82 ± 0.058	2.74 ± 0.14			0.618	0.695 ± 0.079	1.09	1.36 ± 0.31	1.3	0.218		
MKAFDLHRMAFDKVPFDFLGEVALRSLYTFVLVFLFLKMTGRRGVRQMSLFEVLIILTLGSAAGDVAFYDDVPMVPVLIVFITLALLYRLVMWLMAHSEKLEDLLEGKPVVIIEDGELAWSKLNNSNMTEFEFFMELRLRGVEQLGQVRLAILETNGQISVYFFEDDKVKPGLLILPSDCTQRYKVVPESADYACIRCSEIIHMKAGEKQLCPRCANPEWTKASRAKRVT	6.22 ± 1.1	6.17	5.53	5.11 ± 0.43	5.8 ± 0.11		> 8	11.8		> 16		12.1 ± 0.66
MKAILIPFLSLLIPLTPQSAFAQSEPELKLESVVIVSRHGVRAPTKATQLMQDVTPDAWPTWPVKLGWLTPRGGELIAYLGHYQRQRLVADGLLAKKGCPQSGQVAIIADVDERTRKTGEAFAAGLAPDCAITVHTQADTSSPDPLFNPLKTGVCQLDNANVTDAILSRAGGSIADFTGHRQTAFRELERVLNFPQSNLCLKREKQDESCSLTQALPSELKVSADNVSLTGAVSLASMLTEIFLLQQAQGMPEPGWGRITDSHQWNTLLSLHNAQFYLLQRTPEVARSRATPLLDLIKTALTPHPPQKQAYGVTLPTSVLFIAGHDTNLANLGGALELNWTLPGQPDNTPPGGELVFERWRRLSDNSQWIQVSLVFQTLQQMRDKTPLSLNTPPGEVKLTLAGCEERNAQGMCSLAGFTQIVNEARIPACSL	5.24 ± 0.47	5.26 ± 0.056	6.56 ± 0.62	6.26 ± 0.8	5.84 ± 0.11	3.02 ± 0.21		11.6 ± 0.68	5.94 ± 0.28	12.6 ± 0.49	5.7 ± 0.15	11.9 ± 0.49
MKALARFGKAFGGYKMIDVPQPMCGPEDVVIEIKAAAICGADMKHYNVDSGSDEFNSIRGHEFAGCIAQVGEKVKDWKVGQRVVSDNSGHVCGVCPACEQGDFLCCTEKVNLGLDNNTWGGGFSKYCLVPGEILKIHRHALWEIPDGVDYEDAAVLDPICNAYKSIAQQSKFLPGQDVVVIGTGPLGLFSVQMARIMGAVNIVVVGLQEDVAVRFPVAKELGATAVVNGSTEDVVARCQQICGKDNLGLVIECSGANIALKQAIEMLRPNGEVVRVGMGFKPLDFSINDITAWNKSIIGHMAYDSTSWRNAIRLLASGAIKVKPMITHRIGLSQWREGFDAMVDKTAIKVIMTYDFDE				4.04		1.33	2.23	3.7 ± 0.86				5.73
MKALSKLKAEEGIWMTDVPVPELGHNDLLIKIRKTAICGTDVHIYNWDEWSQKTIPVPMVVGHEYVGEVVGIGQEVKGFKIGDRVSGEGHITCGHCRNCRGGRTHLCRNTIGVGVNRPGCFAEYLVIPAFNAFKIPDNISDDLAAIFDPFGNAVHTALSFDLVGEDVLVSGAGPIGIMAAAVAKHVGARNVVITDVNEYRLELARKMGITRAVNVAKENLNDVMAELGMTEGFDVGLEMSGAPPAFRTMLDTMNHGGRIAMLGIPPSDMSIDWTKVIFKGLFIKGIYGREMFETWYKMAALIQSGLDLSPIITHRFSIDDFQKGFDAMRSGQSGKVILSWD	4.87 ± 0.096	5 ± 0.21	5.96 ± 1.6	5.24 ± 0.061	4.44 ± 0.18	2.439 ± 0.022	4.37 ± 0.59	9.68 ± 1.8	4.85 ± 0.16	8.68 ± 0.96	6.2 ± 0.19	12.6 ± 0.36
MKALSPIAVLISALLLQGCVAAAVVGTAAVGTKAATDPRSVGTQVDDGTLEVRVNSALSKDEQIKKEARINVTAYQGKVLLVGQSPNAELSARAKQIAMGVDGANEVYNEIRQGQPIGLGEASNDTWITTKVRSQLLTSDLVKSSNVKVTTENGEVFLMGLVTEREAKAAADIASRVSGVKRVTTAFTFIK	5.42 ± 0.59		6.43 ± 0.3	6.34 ± 0.34	5.71 ± 0.1	3.05 ± 0.21	5.72 ± 0.47	10.5 ± 1.7	5.86 ± 0.3	11.9 ± 0.14	5.78 ± 0.22	12.3 ± 0.21
MKATSEELAIFVSVVESGSFSRAAEQLGQANSAVSRAVKKLEMKLGVSLLNRTTRQLSLTEEGERYFRRVQSILQEMAAAESEIMETRNTPRGLLRIDAATPVVLHFLMPLIKPFRERYPEVTLSLVSSETIINLIERKVDVAIRAGTLTDSSLRARPLFNSYRKIIASPDYISRYGKPETIDDLKQHICLGFTEPASLNTWPIARSDGQLHEVKYGLSSNSGETLKQLCLSGNGIACLSDYMIDKEIARGELVELMADKVLPVEMPFSAVYYSDRAVSTRIRAFIDFLSEHVKTAPGGAVREA	6.4 ± 0.2		5.5 ± 1.2	5.97 ± 0.94	5.67 ± 0.07	3.33 ± 0.26	5.1 ± 0.3	12.7 ± 0.46	6.02 ± 0.12	11.3 ± 0.32	5.75 ± 0.71	12 ± 1.9
MKCKRLNEVIELLQPAWQKEPDLNLLQFLQKLAKESGFDGELADLTDDILIYHLKMRDSAKDAVIPGLQKDYEEDFKTALLRARGVIKE [P0ADP9]	6.97 ± 1.2	4.97 ± 0.93	3.81 ± 0.33	3.98 ± 0.12	3.12 ± 0.3		4.76 ± 0.47	7.3 ± 1.9	2.74 ± 0.051	8.19 ± 5.8	5.01 ± 1.1	11.2 ± 0.38
MKDVVDKCSTKGCAIDIGTVIDNDNCTSKFSRFFATREEAESFMTKLKELAAATSSADEGASVAYKIKDLEGQVELDAAFTFSCQAEMIIFELSLRSLA	5.09 ± 0.21	4.2	2.6 ± 0.38	2.85 ± 0.098	2.09 ± 0.23	2.11 ± 0.4	4.95 ± 1.9	5.78 ± 0.33	2.26 ± 0.19	3.38 ± 0.55	4 ± 0.22	7.6436 ± 0.0046
MKEKPAVEVRLDKWLWAARFYKTRALAREMIEGGKVHYNGQRSKPSKIVELNATLTLRQGNDERTVIVKAITEQRRPASEAALLYEETAESVEKREKMALARKLNALTMPHPDRRPDKKERRDLLRFKHGDSE [P0ACG8]	6.23 ± 0.21			5.39	3.67	2.91	5.7 ± 1.5	6.7	4.16	6.59		7.24

From the supplement of paper PMC11246515
